Values of other authors in paper PMC4184475.

How the values were obtained:
Cys473 = Cys473 (UniProt position 487, ILIFHCEFSSE); conditions: reduced thiol form (implied); otherwise not stated
Cys106 = Cys106 (UniProt position 106, LIAAICAGPTA); conditions: reduced thiol form (implied); otherwise not stated

Substance | pKa (Cys473) | pKa (Cys106)
Cdc25B phosphatase (M-phase inducer phosphatase 2) (Homo sapiens) | 5.8 | 
DJ-1 (Parkinson disease protein 7) (Homo sapiens) |  | 5.4
